Experimental data as given in patent US20220389113A1, “BINDING PROTEINS TO CUB DOMAIN-CONTAINING PROTEIN (CDCP1)” (COMMONWEALTH SCIENTIFIC AND INDUSTRIAL RESEARCH ORGANISATION, priority 2019, published 2022).

Assays:
[1] = system: p-CDCP1-Y734 in HEY cells; assay: Western blot of CDCP1-Y734 and Src-Y416 phosphorylation in HEY cells; assay type: cell-based, human; conditions: 5 μg/ml
Procedure: Cells were biotinylated (4° C., 1 h) with cell-impermeant EZ-link NHS-SS Biotin (1.22 mg/ml; Thermo) then PBS washed and lysed in buffer containing 20 mM HEPES, 150 mM NaCl, 1 mM EDTA, 1% Triton X-100, 1×Complete protease inhibitor cocktail (PIC) and phosphatase inhibitors (2 mM Na3VO4, 10 mM NaF). After centrifugation the supernatant was incubated (15 minutes, 4° C.) with ImmunoPure immobilized streptavidin beads (Thermo). After pelleting, the supernatant containing intracellular proteins was transferred to a separate tube, and the beads washed in lysis buffer containing PIC and phosphatase inhibitors. Lysates and proteins separated by cell surface biotinylation (40 μg/lane) were examined by Western blot analysis as described (He Y, et al., (2016) Oncogene. 35(4):468-78).
Since Src tyrosine phosphorylation is important in CDCP1-mediated signal transduction (Casar B, et al., (2012) Oncogene. 31(35):3924-38), the inventors next examined this in antibody induced processing of CDCP1. […] Live-cell images of the four cell lines were analysed to determine the distance moved (track length) by individual CDCP1^GFP positive puncta during mAb-induced internalization (FIG. 5C, left). […]

PANC-1 cells = assay: Survival assay with cytotoxin-conjugated antibodies, PANC-1; assay type: cell-based, human; conditions: PANC-1, 1 μg/ml, 12 h treatment then 72 h growth
Procedure: (§1) The relative number of viable cells was then measured by adding the CellTiter AQueous One Solution Reagent to each well and measuring absorbance at 490 nm as described above. […] Cells were imaged by wide-field fluorescence microscopy and the total area of confluence for each cell type was quantified by image analysis using Image J software.

TKCC05 cells = assay: Survival assay with cytotoxin-conjugated antibodies, TKCC05; assay type: cell-based, human; conditions: TKCC05, 1 μg/ml, 12 h treatment then 72 h growth
Procedure: as §1

[2] = system: subcutaneous TKCC05 cells xenografts; assay: TKCC05 subcutaneous xenograft, MMAE-conjugated antibodies; assay type: in vivo, mouse; conditions: 5 mg/kg i.v. on day 27 and 41, in comparison with the other treatments
Procedure: Mouse experiments were approved by the University of Queensland Animal Ethics Committee. PDAC cells (2.5×10^6) were injected subcutaneously into the flanks of NOD.Cg-Prkdcscid Il2rgtm1Wjl/SzJ (NSG) mice (6-8 weeks; Jackson Laboratory, Bar Harbor, Me.). For assays assessing the impact of antibody 10D7 on xenograft growth, two weeks after PDAC cell inoculations, mice (n=6/group) were randomized and treated i.v. every four days with PBS, 10D7 (5 mg/kg) or IgG (5 mg/kg) until the end of the assay. For assays assessing whether 10D7 improves the efficacy of gemcitabine chemotherapy, four weeks after PDAC cell inoculations, mice were randomized and treated i.v. every four days with PBS (n=12), 10D7 (n=12, 5 mg/kg) or IgG (n=12, 5 mg/kg). Half of the mice in each of the three groups also received gemcitabine i.p. treatments (125 mg/kg/week). At the end of the assay tumours were harvested, weighed and processed for assessment of histology and CDCP1 expression by immunohistochemistry or western blot analysis. […] Tumour burden was monitored by calliper measurement and tumour volume calculated as previously described (Feldman J P, Goldwasser R, Mark S, Schwartz J (2009) Journal of Applied Quantitative Methods 4(4):455-462). […]
Finally, the inventors evaluated whether the PDAC targeting ability of antibody 10D7 can be harnessed to effectively deliver the cytotoxin MMAE to PDAC in vivo. […]

B1: 10D7-MMAE (conjugate)
VH: EVQLQQFGAELVKPGASVKISCKASGYSFSDFNIEWLKQSHGKSLEWIGDINPNYDSTNYNQKFKGRATLTVDKSSSTAYMEVRSLTSEDTAVYYCARLGYGYAMDYWGQGTSVTVSS
VL: NIVMTQSPQSMSMSVGERVTLSCKASENVGAYVSWFQQKPDQSPKLLILAASNRYTGVPARFIGSGSATDFTLTISSVQAEDLADYHCGQSYTYPYTFGGGTKLEIKRADAAPTVS
How did the “time to phosphorylation of CDCP1-Y734 and Src-Y416” value [1] turn out when B1 was run?
The value was at most 1 h.

And the survival of cells (PANC-1 cells)?
Its survival of cells is “about 20%”.

What about the survival of cells (TKCC05 cells) of the same molecule?
The survival of cells was “about 10%”.

What about the “survival of xenografted mice” value [2] of the same molecule?
Its value is “significantly extended survival”.

And the tumour growth [2]?
The tumour growth was “markedly inhibited tumour growth”.
